# From patent publication US20230071765A1, “COMPOSITIONS HAVING THIOREDOXIN ACTIVITY AND RELATED METHODS” (ORPRO THERAPEUTICS, INC., priority 2020, published 2023)
# Key:
# [1] = system: CF patient sputum on wild type rat trachea; experiment: CF sputum transport ex vivo on excised rat trachea (μOCT); design: species or system human sputum
# Experimental: To determine the effect of ORP100S on CF sputum transportability, sputum specimens spontaneously expectorated from 4 CF patients hospitalized for pulmonary exacerbation were collected and stored at 4° C. before being divided into 200 μL aliquots and treated with ORP100S (3 mM), PBS, DTT (1.6 mM), or DNase (10 or 25 μg/ml) on the day of or day following collection. Upon treatment, sputum aliquots were placed in a 37° C. water bath for 2 hrs and then applied (3 μl per sample) for μOCT imaging to the distal end of trachea excised from adult non-CF rats. Trachea were washed 2× with 500 μl of PBS before sputum addition. Sample conditions were applied in triplicate in random order at distinct anatomic locations—2 washes using 500 μl of PBS were performed between each sample addition—and at least 3 images were collected from each region of interest. Confirmation of trachea viability was obtained by imaging with PBS upon completion of the experiment.
# (§1) One-micron resolution spectral domain μOCT was used to obtain measurements of mucociliary transport (MCT) rate and ciliary beat frequency (CBF) in HBE monolayers and of MCT rate of sputum ex vivo. This first-in-kind, high-speed (40 frames per second, 512 lines per frame) microscopic reflectance imaging modality enables simultaneous anatomic imaging in cell cultures and intact tissues that readily distinguishes the properties of CF compared to normal epithelia (Liu L, Chu K K, Houser G H, Diephuis B J, Li Y, Wilsterman E J, Shastry S, Dierksen G, Birket S E, Mazur M, et al., 2013, Method for quantitative study of airway functional microanatomy using micro-optical coherence tomography, PLoS One 8(1):e54473; Tuggle K L, Birket S E, Cui X, Hong J, Warren J, Reid L, Chambers A, Ji D, Gamber K, Chu K K, et al., 2014, Characterization of defects in ion transport and tissue development in Cystic Fibrosis Transmembrane Conductance Regulator (CFTR)-knockout rats. PLoS One 9(3):e91253). In addition to MCT rate and CBF, μOCT also has the capability to assess physical characteristics of the airway surface liquid. Images were captured, and MCT rate and CBF calculated, as described in the preceding references.
# The effect of ORP100S on mucus clearance using intact rat trachea, which include the complexities of the airway surface such as gland expression of a fully differentiated mucosal surface, was further evaluated. […] MCT was measured by projecting a cross-sectional line through the mucus through time, with the slope of the particle trajectories indicating velocity. […]
# [2] = system: primary HBE cells from healthy non-CF donors; experiment: μOCT of MCT rate and CBF in non-CF primary HBE cells; assay type: cell-based, human
# Source text: Primary human bronchial epithelial (HBE) cells were derived from lung explants from healthy failed donors and CF patients homozygous for F508del CFTR. […]
# as §1, with “PLoS One 9(3):e91253). In addition to MCT rate and CBF, μOCT also has the capability to assess physical characteristics of the airway surface liquid.” left out
molecule,measurement,setting,value
"ORP100S: thioredoxin with monothiol active site, Cys35 and non-active Cys 62, 69 and 73 substituted with serine (SEQ ID NO:29) (protein, synthetic peptide motif) MVKQIESKTAFQEALDAAGDKLVVVDFSATWCGPSKMIKPFFHSLSEKYSNVIFLEVDVDDSQDVASESEVKSMPTFQFFKKGQKVGEFSGANKEKLEATINELV",sputum density vs. PBS-treated sputum,"[1]; 3 mM, μOCT images",effective in decreasing sputum density
same,change in MCT rate normalized to the effect of PBS,"[1]; sputum treated 2 hrs, ORP100S 3 mM, DTT 1.6 mM, DNase 10 or 25 μg/ml",3.80±0.35 fold vs. PBS
same,MCT rate of treated sputum,"[1]; sputum treated 2 hrs, ORP100S 3 mM, DTT 1.6 mM, DNase 10 or 25 μg/ml, PBS 0.97±0.17",4.68±0.9 mm/min
same,CBF,[2]; 3 hrs post treatment,no meaningful differences
same,MCT rate,"[2]; 3 hrs post-treatment, ORP100S 1-3 mM, DTT 1.6 mM, PBS 0.05±0.007, mean±SE",2.18±0.3 mm/min
